Residue numbers refer to the chain shown, from its start. In names and notes the source's numbering stands. Entries after “also recorded” stand apart in the source; their conditions may differ.
B1: R443A: mutant cdc4 polypeptide (protein)
chain: MGSFPLAEFPLRDIPVPYSYRVSGGIASSGSVTALVTAAGTHRNSSTAKTVETEDGEEDIDEYQRKRAAGSGESTPERSDFKRVKHDNHKTLHPVNLQNTGAASVDNDGLHNLTDISNDAEKLLMSVDDGSAAPSTLSVNMGVASHNVAAPTTVNAATITGSDVSNNVNSATINNPMEEGALPLSPTASSPGTTTPLAKTTKTINNNNNIADLIESKDSIISPEYLSDEIFSAINNNLPHAYFKNLLFRLVANMDRSELSDLGTLIKDNLKRDLITSLPFEISLKIFNYLQFEDIINSLGVSQNWNKIIRKSTSLWKKLLISENFVSPKGFNSLNLKLSQKYPKLSQQDRLRLSFLENIFILKNWYNPKFVPQRTTLRGHMTSVITCLQFEDNYVITGADDKMIRVYDSINKKFLLQLSGHDGGVWALKYAHGGILVSGSTDATVRVWDIKKGCCTHVFKGHNSTVRCLDIVEYKNIKYIVTGSRDNTLHVWKLPKESSVPDHGEEHDYPLVFHTPEENPYFVGVLRGHMASVRTVSGHGNIVVSGSYDNTLIVWDVAQMKCLYILSGHTDRIYSTIYDHERKRCISASMDTTIRIWDLENIWNNGECSYATNSASPCAKILGAMYTLQGHTALVGLLRLSDKFLVSAAADGSIRGWDANDYSRKFSYHHTNLSAITTFYVSDNILVSGSENQFNIYNLRSGKLVHANILKDADQIWSVNFKGKTLVAAVEKDGQSFLEILDFSKASKINYVSNPVNSSSSSLESISTSLGLTRTTIIP
B2: Y574F: mutant cdc4 polypeptide (protein)
chain: B1 chain with A443R, Y574F
B3: R443D: mutant cdc4 polypeptide (protein)
chain: B1 chain with A443D
B4: K402A: mutant cdc4 polypeptide (protein)
chain: B1 chain with K402A, A443R
B5: W717N: mutant cdc4 polypeptide (protein)
chain: B1 chain with A443R, W717N
B6: V384N: mutant cdc4 polypeptide (protein)
chain: B1 chain with V384N, A443R

Tests used:
phospho-Sic1 = test: P-Sic1 pull down: in vitro capture of phospho-Sic1 on immobilized wild type or mutant Cdc4-GST-Skp1, anti-Sic1 immunoblot; format: binding, yeast; conditions: Sic1 phosphorylated with Cln2-Cdc28, captured onto GST-Skp1/Cdc4 resin, anti-Sic1 detection
Procedure: (§1) Mutational analysis of the CPD binding surface. Mutants were tested in vitro by ability to bind phosphorylated Sic1 and then captured onto GST-Skp1/Cdc4 resin and detected with anti-sic1 antibody. Mutants were tested in vivo by ability to degrade GAL1-SIC1 or various phosphorylation mutants. Sites are as follows: 3=Thr 33, Thr 45, Ser 76; 4=Thr 5, Thr 33, Thr 45, Ser 76; 5=Thr 2, Thr 5, Thr 33, Thr 45, Ser 76; 6=Thr 2, Thr 5, Thr 33, Thr 45, Ser 69, Ser 76; 7=Thr 2, Thr 5, Thr 33, Thr 45, Ser 69, Ser 76, Ser 80. GAL1-SIC1 plasmids were transformed into a cdc4Δ strain containing a copy of CDC4 on a TRP1 ARS CEN plasmid. Strains were incubated for 2 days at 30° C.
Bacterially expressed His6-Sic1 was phosphorylated with Cln2-Cdc28 kinase purified from baculovirus infected Sf9 cells as described before (Nature paper). 1 ug of WT or mutant Cdc4-GST-Skp1, immoblized on GSH-Sepharose resin, was incubated with 0.5 ug phospho-Sic1 at 4 C for 1 h and washed 4 times. Captured complexes were resolved on SDS-PAGE and Sic1 visualized by anti-Sic1 Western blotting and ECL. For IEF-2D analysis, several Sic1 phosphorylation reactions were carried out for different time periods to obtain a spectrum of Sic1 that were phosphorylated at different numbers of its nine CDK sites. This pool of phospho-Sic1 (2.5 ug) was incubated with 5 μg of WT or mutant Cdc4-GST-Skp1 as described above. Different phosphorylation states of Sic1 were separated by denaturing isoelectric focusing (IEF)-2D gel electrophoresis and visualized by anti-Sic1 Western blotting and ECL. IEF was performed using pH 3-10NL Immobiline gel strips and IPGphore IEF system (Amersham pharmacia).
(§2) Cdc4 functional assays. CDC4 mutant alleles were assessed for complementation of a cdc4A strain in a plasmid shuffle assay (Nash et al., 2001). Sensitivity to SIC1 dosage was determined by transformation with pMT837 (GAL1-SIC1) or pMT767 (GAL1-SIC1^T33V) and plating on glucose medium or galactose medium. For in vitro capture of phospho-Sic1 by Cdc4, 0.5 μg of bacterially-expressed ^HIS6Sic1 was phosphorylated with immobilized Cln2-Cdc28 kinase from baculovirus-infected Sf9 cells and then incubated with 1 μg of immobilized wild type or mutant Cdc4^263-744-GST-Skp1, at 4° C. for 1 hr, washed 4 times and visualized by anti-Sic1 immunoblot. For isoelectric focusing (IEF)-2D gel analyses, an evenly distributed pool of phospho-Sic1 isoforms was generated by combining different time points in a Sic1 phosphorylation reaction. 2.5 μg of the phospho-Sic1 pool was bound to 5 μg of immobilized wild type or mutant Cdc4^1-744-GST-Skp1. Captured isoforms were separated by denaturing IEF-2D gel electrophoresis using pH3-10NL Immobiline gel strips (Amersham) and visualized by anti-Sic1 immunoblot. Alternatively, the pool of phospho-Sic1 isoforms was incubated in solution with a ubiquitination reaction mix containing ATP, ubiquitin, yeast E1, Cdc34 and either wild type or mutant SCF^Cdc4 complex, composed of a 1:1 ratio of bacterial Cdc4-GST-Skp1 and insect cell-produced Cdc53-Rbx1, at 30° C. for 1 h as previously described (Nash et al., 2001).

cdc4Δ strain = test: plasmid shuffle assay: complementation of a cdc4Δ strain by CDC4 alleles; format: cell-based, yeast; conditions: viability of cdc4Δ strain on 5-FOA, 2 days at 30° C.
Procedure: (§3) All mutants on a TRP1 ARS CEN plasmid were transformed into a cdc4Δ strain (MT 1259) containing a wildtype copy of CDC4 on a URA3 ARS CEN plasmid. Cells were plated on either Trp^−Ura^− or 5-FOA medium for 2 days at 30° C. Viable cells on 5-FOA were grown in Trp medium and transformed with either wild type GAL1-SIC1, GAL1-SIC T45A, or GAL1-SIC T33V on a LEU2 ARS CEN pasmid. Cells were then plated on Leu- Trp-plates containing either glucose or galactose and incubated for 2 days at 30° C.
as §2

[1] = tested on: cdc4Δ strain overexpressing SIC1; test: sensitivity to SIC1 dosage: GAL1-SIC1 overexpression in strains bearing CDC4 alleles; format: cell-based, yeast; conditions: for gal Sic1T33V: GAL1-SIC1 T33V (partially stabilized Sic1); for gal Sic1T33V / gal Sic1T45A / gal Sic1 wt: galactose, 2 days at 30° C.; for gal Sic1T45A: GAL1-SIC1 T45A; for gal Sic1 wt: GAL1-SIC1 wild type; for viability / sensitivity to increased SIC1 dosage: Sic1 wt or stabilized Sic1(T33V) or Sic1(T45A) over-expressed under a galactose promoter
Procedure: as §1, §3
Since the cell viability assay nay be masking subtle functional roles for the conserved Cdc4 residues, function was assayed in vivo under more stringent conditions in which Sic1 wt or the stabilized mutants, Sic1 (T33V) or Sic1(T45A) are over-expressed under a galactose promoter. This should amplify defects in cdc4 function. Under these conditions, Trp 717, Tyr 548 and the double mutant K404D/R443D are lethal showing that these residues are in fact important for functions
as §2

Molecule	P-Sic1 pull down (phospho-Sic1)	shuffle (cdc4Δ strain)	gal Sic1T33V [1]	gal Sic1T45A [1]	gal Sic1 wt [1]	viability / sensitivity to increased SIC1 dosage [1]	further results
B1	bind	alive	alive	dead	alive	indistinguishable from wild type	P-Sic1 pull down (phospho-Sic1; listed as Arg443Ala): fully competent; also recorded: indistinguishable from wild type; shuffle (cdc4Δ strain; listed as Arg443Ala): viable; also recorded: indistinguishable from wild type
B2	bind	alive	alive	dead	alive	indistinguishable from wild type	P-Sic1 pull down (phospho-Sic1; listed as Tyr574Ala): fully competent; P-Sic1 pull down (phospho-Sic1; listed as Tyr574Phe): indistinguishable from wild type; shuffle (cdc4Δ strain; listed as Tyr574Ala): viable; shuffle (cdc4Δ strain; listed as Tyr574Phe): indistinguishable from wild type
B3	bind	alive	alive	dead	alive	indistinguishable from wild type	P-Sic1 pull down (phospho-Sic1; listed as Arg443Asp): indistinguishable from wild type; shuffle (cdc4Δ strain; listed as Arg443Asp): indistinguishable from wild type
B4	bind	alive	alive	dead	alive	indistinguishable from wild type	P-Sic1 pull down (phospho-Sic1; listed as Lys402Ala): fully competent; also recorded: indistinguishable from wild type; shuffle (cdc4Δ strain; listed as Lys402Ala): viable; also recorded: indistinguishable from wild type
B5	bind	alive	dead	dead	alive	lethal	P-Sic1 pull down (phospho-Sic1; listed as Trp717): fully competent; P-Sic1 pull down (phospho-Sic1; listed as Trp717Asn): did not overtly affect; shuffle (cdc4Δ strain; listed as Trp717): viable; gal Sic1T33V ([1]; listed as Trp717Asn): conferred sensitivity
B6	bind	alive	alive	dead	alive	indistinguishable from wild type	P-Sic1 pull down (phospho-Sic1; listed as Val384): fully competent; P-Sic1 pull down (phospho-Sic1; listed as Val384Asn): indistinguishable from wild type; shuffle (cdc4Δ strain; listed as Val384): viable; shuffle (cdc4Δ strain; listed as Val384Asn): indistinguishable from wild type
